# In patent US10941182 (Amgen, dated 2021):
# Starred links: 1 amine or outer side, 2 acyl side, 3 side chain; linkers in the order of their positions; H or OH if unused. Non-standard residues stand in square brackets, D forms with d. Primed or numbered codes have the meaning given here. *: point of attachment. AC4Abu = α-carboxy-4-aminobutyric acid, O=C(C(CCN[*:1])C(=O)[*:3])[*:2]; Oic = O=C(O)[C@@H]1C[C@@H]2CCCC[C@@H]2N1; Phe(4-Cl) = N[C@@H](Cc1ccc(Cl)cc1)C(=O)O; dPhe(4-Cl) = N[C@H](Cc1ccc(Cl)cc1)C(=O)O; γGlu = O=C(O)[C@H](CCC(=O)[*:2])N[*:1]; d(β3hF) = N[C@@H](CC(=O)O)Cc1ccccc1; NMeR = CN[C@@H](CCCNC(=N)N)C(=O)O; Palmitoyl = CCCCCCCCCCCCCCCC(=O)*; αMeF = C[C@](N)(Cc1ccccc1)C(=O)O; Cha = N[C@@H](CC1CCCCC1)C(=O)O; αMeP = C[C@@]1(C(=O)O)CCCN1; β3hP = O=C(O)C[C@@H]1CCCN1; Nle = CCCC[C@H](N)C(=O)O; Ac5c = NC1(C(=O)O)CCCC1; Pip′ = not defined here; AEEA = NCCOCCOCC(=O)O; Aib = CC(C)(N)C(=O)O; Inp = O=C(O)C1CCNCC1; Nip = nipecotic acid
# T1: rat APJ receptor (rat, UniProt Q9JHG3 1-377)
# T1 sequence (looked up): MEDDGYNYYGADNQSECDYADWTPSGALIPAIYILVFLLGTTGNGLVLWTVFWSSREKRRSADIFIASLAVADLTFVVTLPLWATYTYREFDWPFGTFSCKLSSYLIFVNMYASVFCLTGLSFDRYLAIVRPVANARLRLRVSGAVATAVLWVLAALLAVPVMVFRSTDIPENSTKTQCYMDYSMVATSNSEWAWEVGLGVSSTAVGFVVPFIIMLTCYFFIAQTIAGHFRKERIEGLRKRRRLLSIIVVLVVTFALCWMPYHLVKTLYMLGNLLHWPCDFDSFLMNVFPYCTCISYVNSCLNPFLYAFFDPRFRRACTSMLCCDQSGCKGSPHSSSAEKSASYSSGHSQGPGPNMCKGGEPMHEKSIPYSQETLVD
# T2: human APJ receptor (human, UniProt P35414 1-380)
# T2 sequence (looked up): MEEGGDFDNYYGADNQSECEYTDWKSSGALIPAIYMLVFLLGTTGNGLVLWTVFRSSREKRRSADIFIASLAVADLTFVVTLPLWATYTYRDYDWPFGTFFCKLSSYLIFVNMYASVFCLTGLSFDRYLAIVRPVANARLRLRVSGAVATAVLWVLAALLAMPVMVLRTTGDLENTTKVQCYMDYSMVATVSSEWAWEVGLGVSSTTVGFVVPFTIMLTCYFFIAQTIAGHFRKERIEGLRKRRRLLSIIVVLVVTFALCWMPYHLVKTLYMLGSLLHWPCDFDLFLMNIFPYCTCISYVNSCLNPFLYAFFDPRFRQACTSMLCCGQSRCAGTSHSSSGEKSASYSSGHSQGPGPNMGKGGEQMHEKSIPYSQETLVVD
# B1: SEQ ID NO: 603 (peptide)
# peptide: Palmitoyl-[γGlu][AEEA][AEEA][dQ]RP[NMeR][Cha]SHKG[Oic][Nle][Inp][dPhe(4-Cl)]-OH
# SMILES: CCCCCCCCCCCCCCCC(=O)N[C@@H](CCC(=O)NCCOCCOCC(=O)NCCOCCOCC(=O)N[C@H](CCC(N)=O)C(=O)N[C@@H](CCCNC(=N)N)C(=O)N1CCC[C@H]1C(=O)N(C)[C@@H](CCCNC(=N)N)C(=O)N[C@@H](CC1CCCCC1)C(=O)N[C@@H](CO)C(=O)N[C@@H](Cc1c[nH]cn1)C(=O)N[C@@H](CCCCN)C(=O)NCC(=O)N1[C@H](C(=O)N[C@@H](CCCC)C(=O)N2CCC(C(=O)N[C@H](Cc3ccc(Cl)cc3)C(=O)O)CC2)C[C@@H]2CCCC[C@@H]21)C(=O)O
# B2: SEQ ID NO: 587 (peptide)
# peptide: Palmitoyl-[AC4Abu][AEEA][AEEA][dQ]RP[NMeR][Cha]SHKG[Oic][Nle][Inp][Phe(4-Cl)]-OH
# SMILES: CCCCCCCCCCCCCCCC(=O)NCCC(C(=O)O)C(=O)NCCOCCOCC(=O)NCCOCCOCC(=O)N[C@H](CCC(N)=O)C(=O)N[C@@H](CCCNC(=N)N)C(=O)N1CCC[C@H]1C(=O)N(C)[C@@H](CCCNC(=N)N)C(=O)N[C@@H](CC1CCCCC1)C(=O)N[C@@H](CO)C(=O)N[C@@H](Cc1c[nH]cn1)C(=O)N[C@@H](CCCCN)C(=O)NCC(=O)N1[C@H](C(=O)N[C@@H](CCCC)C(=O)N2CCC(C(=O)N[C@@H](Cc3ccc(Cl)cc3)C(=O)O)CC2)C[C@@H]2CCCC[C@@H]21
# B3: SEQ ID NO: 585 (peptide)
# peptide: Palmitoyl-[AC4Abu][AEEA][AEEA][dQ]RP[NMeR][Cha]SHKG[Oic][Nle][Ac5c][Phe(4-Cl)]-OH
# SMILES: CCCCCCCCCCCCCCCC(=O)NCCC(C(=O)O)C(=O)NCCOCCOCC(=O)NCCOCCOCC(=O)N[C@H](CCC(N)=O)C(=O)N[C@@H](CCCNC(=N)N)C(=O)N1CCC[C@H]1C(=O)N(C)[C@@H](CCCNC(=N)N)C(=O)N[C@@H](CC1CCCCC1)C(=O)N[C@@H](CO)C(=O)N[C@@H](Cc1c[nH]cn1)C(=O)N[C@@H](CCCCN)C(=O)NCC(=O)N1[C@H](C(=O)N[C@@H](CCCC)C(=O)NC2(C(=O)N[C@@H](Cc3ccc(Cl)cc3)C(=O)O)CCCC2)C[C@@H]2CCCC[C@@H]21
# B4: SEQ ID NO: 608 (peptide)
# peptide: Palmitoyl-[γGlu][AEEA][AEEA][dQ]RP[NMeR][Cha]SHKG[Oic][Nle][Aib][αMeF]-OH
# SMILES: CCCCCCCCCCCCCCCC(=O)N[C@@H](CCC(=O)NCCOCCOCC(=O)NCCOCCOCC(=O)N[C@H](CCC(N)=O)C(=O)N[C@@H](CCCNC(=N)N)C(=O)N1CCC[C@H]1C(=O)N(C)[C@@H](CCCNC(=N)N)C(=O)N[C@@H](CC1CCCCC1)C(=O)N[C@@H](CO)C(=O)N[C@@H](Cc1c[nH]cn1)C(=O)N[C@@H](CCCCN)C(=O)NCC(=O)N1[C@H](C(=O)N[C@@H](CCCC)C(=O)NC(C)(C)C(=O)N[C@@](C)(Cc2ccccc2)C(=O)O)C[C@@H]2CCCC[C@@H]21)C(=O)O
# B5: SEQ ID NO: 610 (peptide)
# peptide: Palmitoyl-[γGlu][AEEA][AEEA][dQ]RP[NMeR][Cha]SHKG[Oic][Nle][αMeP][αMeF]-OH
# SMILES: CCCCCCCCCCCCCCCC(=O)N[C@@H](CCC(=O)NCCOCCOCC(=O)NCCOCCOCC(=O)N[C@H](CCC(N)=O)C(=O)N[C@@H](CCCNC(=N)N)C(=O)N1CCC[C@H]1C(=O)N(C)[C@@H](CCCNC(=N)N)C(=O)N[C@@H](CC1CCCCC1)C(=O)N[C@@H](CO)C(=O)N[C@@H](Cc1c[nH]cn1)C(=O)N[C@@H](CCCCN)C(=O)NCC(=O)N1[C@H](C(=O)N[C@@H](CCCC)C(=O)N2CCC[C@@]2(C)C(=O)N[C@@](C)(Cc2ccccc2)C(=O)O)C[C@@H]2CCCC[C@@H]21)C(=O)O
# B6: SEQ ID NO: 611 (peptide)
# peptide: Palmitoyl-[γGlu][AEEA][AEEA][dQ]RP[NMeR][Cha]SHKG[Oic][Nle][β3hP][αMeF]-OH
# SMILES: CCCCCCCCCCCCCCCC(=O)N[C@@H](CCC(=O)NCCOCCOCC(=O)NCCOCCOCC(=O)N[C@H](CCC(N)=O)C(=O)N[C@@H](CCCNC(=N)N)C(=O)N1CCC[C@H]1C(=O)N(C)[C@@H](CCCNC(=N)N)C(=O)N[C@@H](CC1CCCCC1)C(=O)N[C@@H](CO)C(=O)N[C@@H](Cc1c[nH]cn1)C(=O)N[C@@H](CCCCN)C(=O)NCC(=O)N1[C@H](C(=O)N[C@@H](CCCC)C(=O)N2CCC[C@H]2CC(=O)N[C@@](C)(Cc2ccccc2)C(=O)O)C[C@@H]2CCCC[C@@H]21)C(=O)O
# B7: SEQ ID NO: 604 (peptide)
# peptide: Palmitoyl-[γGlu][AEEA][AEEA][dQ]RP[NMeR][Cha]SHKG[Oic][Nle][Aib][dPhe(4-Cl)]-OH
# SMILES: CCCCCCCCCCCCCCCC(=O)N[C@@H](CCC(=O)NCCOCCOCC(=O)NCCOCCOCC(=O)N[C@H](CCC(N)=O)C(=O)N[C@@H](CCCNC(=N)N)C(=O)N1CCC[C@H]1C(=O)N(C)[C@@H](CCCNC(=N)N)C(=O)N[C@@H](CC1CCCCC1)C(=O)N[C@@H](CO)C(=O)N[C@@H](Cc1c[nH]cn1)C(=O)N[C@@H](CCCCN)C(=O)NCC(=O)N1[C@H](C(=O)N[C@@H](CCCC)C(=O)NC(C)(C)C(=O)N[C@H](Cc2ccc(Cl)cc2)C(=O)O)C[C@@H]2CCCC[C@@H]21)C(=O)O
# B8: SEQ ID NO: 617 (peptide)
# peptide: Palmitoyl-[γGlu][AEEA][AEEA][dQ]RP[NMeR][Cha]S[dH]KG[Oic][Nle][β3hP][d(β3hF)]-OH
# SMILES: CCCCCCCCCCCCCCCC(=O)N[C@@H](CCC(=O)NCCOCCOCC(=O)NCCOCCOCC(=O)N[C@H](CCC(N)=O)C(=O)N[C@@H](CCCNC(=N)N)C(=O)N1CCC[C@H]1C(=O)N(C)[C@@H](CCCNC(=N)N)C(=O)N[C@@H](CC1CCCCC1)C(=O)N[C@@H](CO)C(=O)N[C@H](Cc1c[nH]cn1)C(=O)N[C@@H](CCCCN)C(=O)NCC(=O)N1[C@H](C(=O)N[C@@H](CCCC)C(=O)N2CCC[C@H]2CC(=O)N[C@@H](CC(=O)O)Cc2ccccc2)C[C@@H]2CCCC[C@@H]21)C(=O)O
# B9: SEQ ID NO: 600 (peptide)
# peptide: Palmitoyl-[γGlu][AEEA][AEEA][dQ]RP[NMeR][Cha]SHKG[Oic][Nle][β3hP][dPhe(4-Cl)]-OH
# SMILES: CCCCCCCCCCCCCCCC(=O)N[C@@H](CCC(=O)NCCOCCOCC(=O)NCCOCCOCC(=O)N[C@H](CCC(N)=O)C(=O)N[C@@H](CCCNC(=N)N)C(=O)N1CCC[C@H]1C(=O)N(C)[C@@H](CCCNC(=N)N)C(=O)N[C@@H](CC1CCCCC1)C(=O)N[C@@H](CO)C(=O)N[C@@H](Cc1c[nH]cn1)C(=O)N[C@@H](CCCCN)C(=O)NCC(=O)N1[C@H](C(=O)N[C@@H](CCCC)C(=O)N2CCC[C@H]2CC(=O)N[C@H](Cc2ccc(Cl)cc2)C(=O)O)C[C@@H]2CCCC[C@@H]21)C(=O)O
# Target: T1, rat APJ receptor
# Assay: cell-based or functional assay
row,EC50 Rat APJ Receptor,Binder
1,4.62 nM,Palmitoyl-[γGlu][AEEA][AEEA][dQ]RP[NMeR][Cha]SHKG[Oic][Nle][β3hP][dAMF]-OH [SEQ ID NO: 612]
2,0.55 nM,Palmitoyl-[γGlu][AEEA][AEEA][dQ]RP[NMeR][Cha]SHKG[Oic][Nle]P[dAMF]-OH [SEQ ID NO: 607]
3,32.3 nM,B1
4,2.49 nM,Palmitoyl-[γGlu][AEEA][AEEA][dQ]RP[NMeR][Cha]SHKG[Oic][Nle][Pip′][αMeF]-OH [SEQ ID NO: 609]
5,3.58 nM,B2
6,22.3 nM,B3
7,0.326 nM,B4
8,3.25 nM,Palmitoyl-[γGlu][AEEA][AEEA][dQ]RP[NMeR][Cha]SHKG[Oic][Nle][Pip′][dPhe(4-Cl)]-OH [SEQ ID NO: 601]
9,4.55 nM,Palmitoyl-[AC4Abu][AEEA][AEEA][dQ]RP[NMeR][Cha]SHKG[Pip′][Nle]P[d(β3hF)]-OH [SEQ ID NO: 568]
10,4.98 nM,B5
11,1.57 nM,B6
12,23 nM,Palmitoyl-[AC4Abu][AEEA][AEEA][dQ]RP[NMeR][Cha]SHKG[Oic][Nle][Nip][Phe(4-Cl)]-OH [SEQ ID NO: 586]
13,0.512 nM,B7
14,25.6 nM,Palmitoyl-[γGlu][AEEA][AEEA][dQ]RP[NMeR][Cha]SHKG[Oic][Nle][Nip][dPhe(4-Cl)]-OH [SEQ ID NO: 602]
15,25.8 nM,B8
16,4.46 nM,B9

# Target: T2, human APJ receptor
# Assay: cell-based or functional assay
row,EC50 Human APJ Receptor,Binder
1,1.72 nM,Palmitoyl-[γGlu][AEEA][AEEA][dQ]RP[NMeR][Cha]SHKG[Oic][Nle][β3hP][dAMF]-OH [SEQ ID NO: 612]
2,0.0956 nM,Palmitoyl-[γGlu][AEEA][AEEA][dQ]RP[NMeR][Cha]SHKG[Oic][Nle]P[dAMF]-OH [SEQ ID NO: 607]
3,2.96 nM,B1
4,1.25 nM,Palmitoyl-[γGlu][AEEA][AEEA][dQ]RP[NMeR][Cha]SHKG[Oic][Nle][Pip′][αMeF]-OH [SEQ ID NO: 609]
5,1.29 nM,B2
6,6.73 nM,B3
7,0.214 nM,B4
8,3.44 nM,Palmitoyl-[γGlu][AEEA][AEEA][dQ]RP[NMeR][Cha]SHKG[Oic][Nle][Pip′][dPhe(4-Cl)]-OH [SEQ ID NO: 601]
9,2.97 nM,Palmitoyl-[AC4Abu][AEEA][AEEA][dQ]RP[NMeR][Cha]SHKG[Pip′][Nle]P[d(β3hF)]-OH [SEQ ID NO: 568]
10,1.06 nM,B5
11,0.722 nM,B6
12,7.96 nM,Palmitoyl-[AC4Abu][AEEA][AEEA][dQ]RP[NMeR][Cha]SHKG[Oic][Nle][Nip][Phe(4-Cl)]-OH [SEQ ID NO: 586]
13,0.423 nM,B7
14,5.48 nM,Palmitoyl-[γGlu][AEEA][AEEA][dQ]RP[NMeR][Cha]SHKG[Oic][Nle][Nip][dPhe(4-Cl)]-OH [SEQ ID NO: 602]
15,8.68 nM,B8
16,1.66 nM,B9
